Reference: US20240263208A1, “CYTOCHROME P450 ENZYME” (HYPHA DISCOVERY LTD., priority 2021, published 2024)

Experiments:
[1] = Oxidase activity testing, lyophilised recombinant P450/ferredoxin SeuF08/ferredoxin reductase SCF15A against ambroxide; format: biochemical
Procedure: (§1) Lyophilised material of recombinant P450, ferredoxin and ferredoxin reductase proteins was made as described in Example 4 and reconstituted in high purity water to the original volume. Biocatalysis was performed with shaking incubation at 27° C. in the following conditions: 100 mM potassium phosphate pH 8.0, 5 mM MgCl2 (both present in the reconstituted enzyme preparation) and 0.1 mg/ml substrate compound such as ambroxide (Sigma-Aldrich, UK), carbamazepine (Sigma-Aldrich, UK), diclofenac (Sigma-Aldrich, UK), tivantinib (MedChemtronica, Sweden), clarithromycin (Tokyo Chemical Industry, Japan), sclareol (Sigma-Aldrich, UK), celecoxib (LC Laboratories, USA), buparvaquone (Sigma-Aldrich, UK), BIRB796 (MedChemExpress, USA), vanoxerine (CiVentiChem, USA), valsartan (Tokyo Chemical Industry, Japan), ruxolitinib (LC Laboratories, USA), perindopril (Selleckchem, USA), solifenacin (Key Organics, UK), 7-ethoxycoumarin (Tokyo Chemical Industry, Japan), tofacitinib (LC Laboratories, USA), ebastine (Key Organics, UK), efavirenz (Key Organics, UK), propanalol (Sigma-Aldrich, UK) and tolbutamide (Key Organics, UK).
(§2) Concentrations of P450, ferredoxin and ferredoxin reductase were as extracted (Example 4). Reactions were initiated by addition of 10× stock of cofactor mixture (50 mM G6P, 10 mM NADP+, 10 UN/ml G6PDH) to provide a final volume of e.g., 10 μl to 90 μl for 100 μl total reaction volumes. After 16-20 hours, reactions were extracted with an equal volume of acetonitrile, centrifuged to remove precipitated proteins and conversion assessed by UPLC-MS analysis.
(§3) UPLC Data were Obtained as Follows: • Column: Acquity UPLC BEH Shield RP18 1.7 μm 2.1 mm i.d. 50 mm length • Solvents: H2O, B: Acetonitrile, both with 0.1% Formic acid • Flow rate: 1.0 ml/min • Detector: Waters Acquity UPLC PDA (UV-Vis detection) and Waters Acquity UPLC QDA (MS)
(§4) To confirm the identities of reaction products where known, their chromatographic retention time, mass and ultraviolet spectra were compared with those of authentic metabolite standards.
Representative results for the % conversions of ambroxide to oxidised (+16 Da) products for single point mutants at position T109 are shown in Table 2 below.

[2] = Oxidase activity testing against carbamazepine; format: biochemical; conditions: for +16 Da (1.18 min) 253 m/z: 2-hydroxycarbamazepine; for +16 Da (1.18 min) 253 m/z / +16 Da (1.14 min) 253 m/z / Parent (1.31 min) 237 m/z: relative MS peak area; for +16 Da (1.14 min) 253 m/z: carbamazepine epoxide; for Parent (1.31 min) 237 m/z: remaining carbamazepine, 0.1 mg/ml, 27° C., 16-20 hours; for Average % conversion: substrate carbamazepine, relative MS peak areas
Procedure: as §1, §2, §3, §4
Representative results for the % conversions of carbamazepine to oxidised (+16 Da) products for single point mutants at position L198 are shown in Table 3 below.

[3] = oxidised ambroxide product, relative MS peak area

Molecule | +16 Da (1.50 min) 253 m/z [1, 3] | +16 Da (1.60 min) 253 m/z [1, 3] | +16 Da (2.04 min) 253 m/z [1, 3] | Ambroxide (2.22 min) 237 m/z ([1]; remaining substrate, relative MS peak area, 0.1 mg/ml ambroxide, 27° C., 16-20 hours) | Average % conversion ([1]; substrate ambroxide, relative MS peak areas) | +16 Da (1.18 min) 253 m/z [2] | +16 Da (1.14 min) 253 m/z [2] | Parent (1.31 min) 237 m/z [2] | Average % conversion [2]
SeuC10M1: P450SeuC10 with T109R mutation, SEQ ID NO: 6 (protein, SeuC10M1) MKIGTTHLTRLRGLSMTELTDITGPAAQAETVAFPQDRTCPYHPPTGYDPLRDGRPLSRVTLYDGREVWLVTAQATARALLADPRLSTDRRRDGFPVPTPRFAAGRDRRLALLGLDDPEHHRQRRLLIPSFTLKRATAQRPWIQRIVDELLDAMIARGPVADLVSAFALPVPSMVICELLGVPYADHEFFEEQSRRLLRGPTGADTTDARDRLEAYLGDLIDAKAKEAEPGDGILDDLVHNRLRAGELDRSVLVSLAVILLVAGHETTANMISLGTYTLLQHPERLAELRADPSLLPAVVEELLRMLSIAEGLQRLALEDIEIDGITIRAGEGVLFSTSVINRDTAVYEDPDDLDFHRADRHHVAFGFGIHQCLGQNLARAELEIALGSLFTRLPGLRLAAPAEEIPFKPGDTVQGMLELPVTW | 40.7% | 0.0% | 0.0% | 59.3% | 40.7% |  |  |  | 
SeuC10M8: P450SeuC10 with L198I mutation, SEQ ID NO: 20 (protein, SeuC10M8) MKIGTTHLTRLRGLSMTELTDITGPAAQAETVAFPQDRTCPYHPPTGYDPLRDGRPLSRVTLYDGREVWLVTAQATARALLADPRLSTDRRRDGFPVPTPRFAAGRDRTLALLGLDDPEHHRQRRLLIPSFTLKRATAQRPWIQRIVDELLDAMIARGPVADLVSAFALPVPSMVICELLGVPYADHEFFEEQSRRLIRGPTGADTTDARDRLEAYLGDLIDAKAKEAEPGDGILDDLVHNRLRAGELDRSVLVSLAVILLVAGHETTANMISLGTYTLLQHPERLAELRADPSLLPAVVEELLRMLSIAEGLQRLALEDIEIDGITIRAGEGVLFSTSVINRDTAVYEDPDDLDFHRADRHHVAFGFGIHQCLGQNLARAELEIALGSLFTRLPGLRLAAPAEEIPFKPGDTVQGMLELPVTW |  |  |  |  |  | 0.0% | 35.3% | 64.7% | 35.3%
SeuC10M12: P450SeuC10 with L198M mutation, SEQ ID NO: 28 (protein, SeuC10M12) MKIGTTHLTRLRGLSMTELTDITGPAAQAETVAFPQDRTCPYHPPTGYDPLRDGRPLSRVTLYDGREVWLVTAQATARALLADPRLSTDRRRDGFPVPTPRFAAGRDRTLALLGLDDPEHHRQRRLLIPSFTLKRATAQRPWIQRIVDELLDAMIARGPVADLVSAFALPVPSMVICELLGVPYADHEFFEEQSRRLMRGPTGADTTDARDRLEAYLGDLIDAKAKEAEPGDGILDDLVHNRLRAGELDRSVLVSLAVILLVAGHETTANMISLGTYTLLQHPERLAELRADPSLLPAVVEELLRMLSIAEGLQRLALEDIEIDGITIRAGEGVLFSTSVINRDTAVYEDPDDLDFHRADRHHVAFGFGIHQCLGQNLARAELEIALGSLFTRLPGLRLAAPAEEIPFKPGDTVQGMLELPVTW |  |  |  |  |  | 0.0% | 40.5% | 59.5% | 40.5%
SeuC10M14: P450SeuC10 with L198V mutation, SEQ ID NO: 32 (protein, SeuC10M14) MKIGTTHLTRLRGLSMTELTDITGPAAQAETVAFPQDRTCPYHPPTGYDPLRDGRPLSRVTLYDGREVWLVTAQATARALLADPRLSTDRRRDGFPVPTPRFAAGRDRTLALLGLDDPEHHRQRRLLIPSFTLKRATAQRPWIQRIVDELLDAMIARGPVADLVSAFALPVPSMVICELLGVPYADHEFFEEQSRRLVRGPTGADTTDARDRLEAYLGDLIDAKAKEAEPGDGILDDLVHNRLRAGELDRSVLVSLAVILLVAGHETTANMISLGTYTLLQHPERLAELRADPSLLPAVVEELLRMLSIAEGLQRLALEDIEIDGITIRAGEGVLFSTSVINRDTAVYEDPDDLDFHRADRHHVAFGFGIHQCLGQNLARAELEIALGSLFTRLPGLRLAAPAEEIPFKPGDTVQGMLELPVTW |  |  |  |  |  | 0.0% | 43.7% | 56.3% | 43.7%
SeuC10M16: P450SeuC10 with L198N mutation, SEQ ID NO: 36 (protein, SeuC10M16) MKIGTTHLTRLRGLSMTELTDITGPAAQAETVAFPQDRTCPYHPPTGYDPLRDGRPLSRVTLYDGREVWLVTAQATARALLADPRLSTDRRRDGFPVPTPRFAAGRDRTLALLGLDDPEHHRQRRLLIPSFTLKRATAQRPWIQRIVDELLDAMIARGPVADLVSAFALPVPSMVICELLGVPYADHEFFEEQSRRLNRGPTGADTTDARDRLEAYLGDLIDAKAKEAEPGDGILDDLVHNRLRAGELDRSVLVSLAVILLVAGHETTANMISLGTYTLLQHPERLAELRADPSLLPAVVEELLRMLSIAEGLQRLALEDIEIDGITIRAGEGVLFSTSVINRDTAVYEDPDDLDFHRADRHHVAFGFGIHQCLGQNLARAELEIALGSLFTRLPGLRLAAPAEEIPFKPGDTVQGMLELPVTW |  |  |  |  |  | 0.0% | 1.9% | 98.1% | 1.9%
SeuC10M17: P450SeuC10 with L198D mutation, SEQ ID NO: 38 (protein, SeuC10M17) MKIGTTHLTRLRGLSMTELTDITGPAAQAETVAFPQDRTCPYHPPTGYDPLRDGRPLSRVTLYDGREVWLVTAQATARALLADPRLSTDRRRDGFPVPTPRFAAGRDRTLALLGLDDPEHHRQRRLLIPSFTLKRATAQRPWIQRIVDELLDAMIARGPVADLVSAFALPVPSMVICELLGVPYADHEFFEEQSRRLDRGPTGADTTDARDRLEAYLGDLIDAKAKEAEPGDGILDDLVHNRLRAGELDRSVLVSLAVILLVAGHETTANMISLGTYTLLQHPERLAELRADPSLLPAVVEELLRMLSIAEGLQRLALEDIEIDGITIRAGEGVLFSTSVINRDTAVYEDPDDLDFHRADRHHVAFGFGIHQCLGQNLARAELEIALGSLFTRLPGLRLAAPAEEIPFKPGDTVQGMLELPVTW |  |  |  |  |  | 0.0% | 3.2% | 96.8% | 3.2%
SeuC10M18: P450SeuC10 with L198H mutation, SEQ ID NO: 40 (protein, SeuC10M18) MKIGTTHLTRLRGLSMTELTDITGPAAQAETVAFPQDRTCPYHPPTGYDPLRDGRPLSRVTLYDGREVWLVTAQATARALLADPRLSTDRRRDGFPVPTPRFAAGRDRTLALLGLDDPEHHRQRRLLIPSFTLKRATAQRPWIQRIVDELLDAMIARGPVADLVSAFALPVPSMVICELLGVPYADHEFFEEQSRRLHRGPTGADTTDARDRLEAYLGDLIDAKAKEAEPGDGILDDLVHNRLRAGELDRSVLVSLAVILLVAGHETTANMISLGTYTLLQHPERLAELRADPSLLPAVVEELLRMLSIAEGLQRLALEDIEIDGITIRAGEGVLFSTSVINRDTAVYEDPDDLDFHRADRHHVAFGFGIHQCLGQNLARAELEIALGSLFTRLPGLRLAAPAEEIPFKPGDTVQGMLELPVTW |  |  |  |  |  | 0.0% | 14.6% | 85.4% | 14.6%
SeuC10M19: P450SeuC10 with L198Y mutation, SEQ ID NO: 42 (protein, SeuC10M19) MKIGTTHLTRLRGLSMTELTDITGPAAQAETVAFPQDRTCPYHPPTGYDPLRDGRPLSRVTLYDGREVWLVTAQATARALLADPRLSTDRRRDGFPVPTPRFAAGRDRTLALLGLDDPEHHRQRRLLIPSFTLKRATAQRPWIQRIVDELLDAMIARGPVADLVSAFALPVPSMVICELLGVPYADHEFFEEQSRRLYRGPTGADTTDARDRLEAYLGDLIDAKAKEAEPGDGILDDLVHNRLRAGELDRSVLVSLAVILLVAGHETTANMISLGTYTLLQHPERLAELRADPSLLPAVVEELLRMLSIAEGLQRLALEDIEIDGITIRAGEGVLFSTSVINRDTAVYEDPDDLDFHRADRHHVAFGFGIHQCLGQNLARAELEIALGSLFTRLPGLRLAAPAEEIPFKPGDTVQGMLELPVTW |  |  |  |  |  | 0.0% | 3.9% | 96.1% | 3.8%
